Measured values from the RNAGym collection of RNA variant scans (doi:10.1073/pnas.2313332121).

B1: TPR t1 (parent)
chain: GACCAAUCUGCCCUCAGAGCUCGAGAACAUCUUCGGAUGCAGAGGAGGCAGGCUUCGGUGGCGCGAUAGCGCCAACGUCCUCAACCUCCAAUGCAUCCCACCACAUGAUGAUGCCUGAAGAGCCUUGGUUUUUUG

Variants of: B1
Assay: polymerase ribozyme fitness, log enrichment relative to wild type (log ratio); higher = more active; in vitro selection for triplet polymerase activity
Outline: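 Streptavidin-bead capture of gel-excised extended constructs, followed by RT-PCR, closed a single triplicate in vitro selection round. That round began by annealing PCR-built, transcribed mutant libraries of each subunit of a heterodimeric triplet polymerase ribozyme with a biotinylated primer, the partner subunit and triplets, then incubating them frozen at −7 °C. After Illumina sequencing of inputs and outputs, genotypes needed ≥10 input reads and ≥1 read per output. Fitness is the base-2 logarithm of genotype enrichment over wild-type enrichment, using inverse-variance-weighted replicate averages.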
With GACCAAUCUGCCCUCAGAGCUCGAGAACAUCUUCGGAUGCACAGGAGGCAGGCUUCGGUGGCGCGAUACCGCCAACGUCCUCAACAUCCAAUGCAUCCCACCACAUGAUGAUGCCUCAAGAGCCUUGGUUUUUUG the “polymerase ribozyme fitness (log ratio)” value was -6.61. In the case of GACCAAUCUGCCCUCAGAGCUCGAGAACAUCUUCGGAUGCACAGGAGGCAGGCUUCGGUGGCGCGAUAGCUCCAACGUCCUCAACCUCCAAUGCAUCCCACCACAUGAUGAUGCCUGAAGAGCCUUGGUUUUUUG, the “polymerase ribozyme fitness (log ratio)” value is reported as -2.39. In the case of GACCAAUCUGCCCUCAGAGCUCGAGAACAUCUUCGGAUGCACAGGAGGCAGGCUUCGGUGGCGCGAUAGCGCCAACUUCCUCAACCUCCAAUGCAUCCCACCACAUGAUGAUGCCUGAAGAGCCUUGGUUUUUUG, the “polymerase ribozyme fitness (log ratio)” value is reported as -1.59. With GACCAAUCUGCCCUCAGAGCUCGAGAACAUCUUCGGAUGCACAGGAGGCAGGCUUCGGUGGCGCGAUAGCGCCAACGUCCUCAACCUCCAAUACAUUCCACCACAUGAUGAUGCUUGAAGAGCCUUGGUUUUUUG the “polymerase ribozyme fitness (log ratio)” value was -5.15. With GACCAAUCUGCCCUCAGAGCUCGAGAACAUCUUCGGAUGCACAGGAGGCAGGCUUCGGUGGCGCGAUAGCGCCAACGUCCUCAACCUCCAAUGCAUCCCACCACAUGAUGAUGCCUCAAGAGCCUUGGUUUUUUG the “polymerase ribozyme fitness (log ratio)” value was -4.02. In the case of GACCAAUCUGCCCUCAGAGCUCGAGAACAUCUUCGGAUGCACAGGAGGCAGGCUUCGGUGGCGCGAUAGCGCCAACGUCCUCAACCUCCAAUGCAUCCCACCACAUGAUGAUGCCUGAAAAGCCUUGGUUUUUUG, the “polymerase ribozyme fitness (log ratio)” value is reported as -1.29. With GACCAAUCUGCCCUCAGAGCUCGAGAACAUCUUCGGAUGCACAGGAGGCAGGCUUCGGUGGCGCGAUAGCGCCAACGUCCUCAACCUCCAAUGCAUCCCACCACAUGAUGAUGCCUGAAGAGCCUUUGUUUUUUG the “polymerase ribozyme fitness (log ratio)” value was -2.05. In the case of GACCAAUCUGCCCUCAGAGCUCGAGAACAUCUUCGGAUGCACAGGAGGCAGGCUUCGGUGGCGCGAUAGCGCCAACGUCCUCAACCUCCAAUGCAUCCCACCACAUGAUGAAGCCUGAAGAGCCUUGGUUUUUUG, the “polymerase ribozyme fitness (log ratio)” value is reported as -0.562. For GACCAAUCUGCCCUCAGAGCUCGAGAACAUCUUCGGAUGCAUAGGAGGCAGGCUUCGGUGGCGCGAUAGCGCCAACGUCCUCAACCUCCAAUGCAUCCCACCACAUGAUGAUGCCUGAAGAGCCUUGGUUUUUUG, the “polymerase ribozyme fitness (log ratio)” value was -1.31. In the case of GACCAAUCUGCCCUCAGAGCUCGAGAACAUCUUCGGAUGCAUCGGAGGCAGGCUUCGGUAGCGCGAUAGCGCCAACGUCCUCAACCUCAAAUGCAUCCCACCACAUGAUGAUGCCUGAAGAGCCUUGGUUUUUUG, the “polymerase ribozyme fitness (log ratio)” value is reported as -2.03. In the case of GACCAAUCUGCCCUCAGAGCUCGAGAACAUCUUCGGAUGCAUAGGAGGCAGGCUUCGGUGGCGCGUUAGCGCCAACGUCCUCAACCUCCAAUGCAUCCCACCACAUGAUGAUGCCUGAAGAGCCUUGGUUUUUUG, the “polymerase ribozyme fitness (log ratio)” value is reported as -2.91. For GACCAAUCUGCCCUCAGAGCUCGAGAACAUCUUCGGAUGCAUAGGAGGCAGGCUUCGGUGGCGCGAUAGCGCCCACGUCCUCAACCUCCAAUGCAUCCCACCACAUGAUGAUGCCUUAAGAGCCUUGGUUUUUUG, the “polymerase ribozyme fitness (log ratio)” value was -4.16. For GACCAAUCUGCCCUCAGAGCUCGAGAACAUCUUCGGAUGCAUAGGAGGCAGGCUUCGGUGGCGCGAUAGCGCCAACGUCCUCAACCUCCAAUGCGUCCCACCACAUGAUGAUGCCUGAAGAGCCUUGGUUUUUUG, the “polymerase ribozyme fitness (log ratio)” value was -0.388. In the case of GACCAAUCUGCCCUCAGAGCUCGAGAACAUCUUCGGAUGCAUAGGAGGAAGGCUUCGGUGGCGCGAUAGCGCCAACAUCCUCAACCUCCAAUGCAUCCCACCACAUGAUGAUGCCUGAAGAGGCUUGGUUUUUUU, the “polymerase ribozyme fitness (log ratio)” value is reported as -1.82. In the case of GACCAAUCUGCCCUCAGAGCUCGAGAACAUCUUCGGAUGCAUAGGAGGCAGGAUUCGGUGGCGCGAUAGCGCCAACGUCCUCACCUUCCUAUGCAUCCCACCACAUGAUGAUGCCUGAAGAGCCUUGGUUGCUUG, the “polymerase ribozyme fitness (log ratio)” value is reported as -1.34. For GACCAAUCUGCCCUCAGAGCUCGAGAACAUCUUCGGAUGCAUAGGAGGCAGGUUUCGGUGGUGCGAUAGCGCCAACGUCCUCAACCUCCAAUGCAUCCCACCACAUGAUAAUGCCUGAAGAGCCUUGGUUUUUUG, the “polymerase ribozyme fitness (log ratio)” value was -3.9. For GACCAAUCUGCCCUCAGAGCUCGAGAACAUCUUCGGAUGCAUAGGAGGCAGGUUUCGGUUGCGCGAUAGCGCCAACGUCCUCAACCUCCAAUGCAUCCCACCACAUGAUUAUGCCUGAAGAGCCUUGGUUUUUUG, the “polymerase ribozyme fitness (log ratio)” value was -3.64. With GACCAAUCUGCCCUCAGAGCUCGAGAACAUCUUCGGAUGCAUAGGAGGCAGGCUUAGGUGGCGCGAUAGCGCCAACGUCCUCAACCUCCAAUGCAUCCCACCACAUGAUGAUGCCUGAAGAGCCUUGGUUUUUUG the “polymerase ribozyme fitness (log ratio)” value was -3.39. In the case of GACCAAUCUGCCCUCAGAGCUCGAGAACAUCUUCGGAUGCAUAGGAGGCAGGCUUGGGUGGCGCGAUAGCGCUAACGUCCUCAACCUCCAAUGCAUCCCACCACAUGAUAAUGCCUGAAGAGCCUUGGUUUUUUG, the “polymerase ribozyme fitness (log ratio)” value is reported as -4.56. In the case of GACCAAUCUGCCCUCAGAGCUCGAGAACAUCUUCGGAUGCAUAGGAGGCAGGCUUUGGUGGCGCGAUAGCGUCAACGUCCUCAAGCUCCAAUGCAUCCCACCACAUGAUUAUGCCUGAAGAGCCUUGGUUUUUUG, the “polymerase ribozyme fitness (log ratio)” value is reported as -5.53. In the case of GACCAAUCUGCCCUCAGAGCUCGAGAACAUCUUCGGAUGCAUAGGAGGCAGGCUUUGGUGGCGCGAUAGCGCCAACGUCCUCAACUUCCAAUGCAUCCCACCACAUGAUGAUGCCUGAAGAGCCUUGGUUUUUUG, the “polymerase ribozyme fitness (log ratio)” value is reported as -1.14. For GACCAAUCUGCCCUCAGAGCUCGAGAACAUCUUCGGAUGCAUAGGAGGCAGGCUUCGGUGGUGCGAUAGCGCCAACGUCCUCAACCUCCAAUGCAUCCCACCACAUGAUGAUGCCUGAAGAGCCUUGGUUUUUUG, the “polymerase ribozyme fitness (log ratio)” value was -1.69. In the case of GACCAAUCUGCCCUCAGAGCUCGAGAACAUCUUCGGAUGCAUAGGAGGCAGGCUUCGGUGGUGUGAUAGCGCCAACGUCCUCAGCCUCCAAUGCAUCCCACCACAUGAUGAUGCCUGAAGAGCCUUGGUUUUUUG, the “polymerase ribozyme fitness (log ratio)” value is reported as -4.19. With GACCAAUCUGCCCUCAGAGCUCGAGAACAUCUUCGGAUGCAUAGGAGGCAGGCUUCGGUGGCGUGAUAGCGCCAACGUCCUCAACCUCCAAUGCAUCCCACCACAUGAUGAUGCCUGAAGAGCCUUGGUUUUUUG the “polymerase ribozyme fitness (log ratio)” value was -1.54. For GACCAAUCUGCCCUCAGAGCUCGAGAACAUCUUCGGAUGCAUAGGAGGCAGGCUUCGGUGGCGCGAUAGCGCAAACGUCCUCAACCUCCAAUGCAUCCUACCACAUGAUGAUGCCUGAAGAGCCUUGGUUUUUUG, the “polymerase ribozyme fitness (log ratio)” value was -6.29. In the case of GACCAAUCUGCCCUCAGAGCUCGAGAACAUCUUCGGAUGCAUAGGAGGCAGGCUUCGGUGGCGCGAUAGCGCAAACGUCCUCAACCUCCAAUGCAUCCCACCACAUGAUGAUGCCUGAAGAGCCUUAGUUUUUUG, the “polymerase ribozyme fitness (log ratio)” value is reported as -2.84. For GACCAAUCUGCCCUCAGAGCUCGAGAACAUCUUCGGAUGCAUAGGAGGCAGGCUUCGGUGGCGCGAUAGCGCUAACGUCCUCAACCUCCAAUGCAUCCCACCACAUGAUGAUGCCUAAAGAGCCUUGGUUUUUUG, the “polymerase ribozyme fitness (log ratio)” value was -3.05. In the case of GACCAAUCUGCCCUCAGAGCUCGAGAACAUCUUCGGAUGCAUAGGAGGCAGGCUUCGGUGGCGCGAUAGCGCCAACGUCUUCAACCUCCAAUGCAUCCCACCACAUGAUGAUGCCUGAAGAGCCUUGGUUUUUUG, the “polymerase ribozyme fitness (log ratio)” value is reported as -2.21. With GACCAAUCUGCCCUCAGAGCUCGAGAACAUCUUCGGAUGCAUAGGAGGCAGGCUUCGGUGGCGCGAUAGCGCCAACGUCCUCAACCUGCAAUGCAUCCCAACACAUGAUGAUGCCUGAACAGCCUUGGUUUUUUG the “polymerase ribozyme fitness (log ratio)” value was -3.53. With GACCAAUCUGCCCUCAGAGCUCGAGAACAUCUUCGGAUGCAUAGGAGGCAGGCUUCGGUGGCGCGAUAGCGCCAACGUCCUCAACCUCCAAUGCAUCCCAUCACAUGAUGAUGCCUGAAGAGCCUUGGUUUUUUG the “polymerase ribozyme fitness (log ratio)” value was -1.21. For GACCAAUCUGCCCUCAGAGCUCGAGAACAUCUUCGGAUGCAUAGGAGGCAGGCUUCGGUGGCGCGAUAGCGCCAACGUCCUCAACCUCCAAUGCAUCCCACAACAUGAUGAUGCCUGAAGAGCCUUGGUUUUUUG, the “polymerase ribozyme fitness (log ratio)” value was -5.37. For GACCAAUCUGCCCUCAGAGCUCGAGAACAUCUUCGGAUGCAUAGGAGGCAGGCUUCGGUGGCGCGAUAGCGCCAACGUCCUCAACCUCCAAUGCAUCCCACCACAUGAUGAUGCCUGAAGAGACUUGGUUUUUUG, the “polymerase ribozyme fitness (log ratio)” value was -1.18. For GACCAAUCUGCCCUCAGAGCUCGAGAACAUCUUCGGAUGCAUAGGAGGCAGGCUUCGGUGGCGCGAUAGCGCCAACGUCCUCAACCUCCAAUGCAUCCCACCACAUGAUGAUGCCUGAAGAGCGUUGGUUUUUUC, the “polymerase ribozyme fitness (log ratio)” value was 0.643. With GACCAAUCUGCCCUCAGAGCUCGAGAACAUCUUCGGAUGCAUAGGAGGCAGGCUUCGGUGGCGCGAUAGCGCCAACGUCCUCAACCUCCAAUGCAUCCCACCACAUGAUGAUGCCUGAAGAGCUUUGGUUUUUUG the “polymerase ribozyme fitness (log ratio)” value was -0.586. With GACCAAUCUGCCCUCAGAGCUCGAGAACAUCUUCGGAUGCAUAGAAGGCAGGCUUCGGUGGCGCGAUAGCGCCAACGUCCUCAACCUCCAAUGCAUCCCACCACAUGAUCAUGCCUGAAGAGCCUUGGUUUUUUG the “polymerase ribozyme fitness (log ratio)” value was -5.34. In the case of GACCAAUCUGCCCUCAGAGCUCGAGAACAUCUUCGGAUGCAUAGCAGGCGGGCUUCGGUGGCGCGAUAGCGCCAACGUCCUUAACCUCCAAUGCAUCCCACCACAUGAUGAUGCCUGAAGGGCCUUGGUUUUUUG, the “polymerase ribozyme fitness (log ratio)” value is reported as 0.685. For GACCAAUCUGCCCUCAGAGCUCGAGAACAUCUUCGGAUGCAUAGCAGGCAGGCUUCGGUGGCGCGAUAGUGCCAACGUCCUCGACCUCCAAUGCAUCCCACCACAUGAUGAUGCCUGAAGAGCCUUGGUUUUUUG, the “polymerase ribozyme fitness (log ratio)” value was -5.2. For GACCAAUCUGCCCUCAGAGCUCGAGAACAUCUUCGGAUGCAUAGCAGGCAGGCUUCGGUGGCGCGAUAGCGCCAAUGUCCUCAACCUCCAAUGCAUCCCACCACAUGAUGAUGCCUGAAGAGCCUUGGUUUUUUG, the “polymerase ribozyme fitness (log ratio)” value was -2.43. With GACCAAUCUGCCCUCAGAGCUCGAGAACAUCUUCGGAUGCAUAGGAAGCAGGCUUCGGUGGCGCGAUAGCGCCAACGUCCUCAACCUCCAAUGCAUCCCACCACAUGAUGAUGCCUGAAGAGCCUUGGUUUUUUG the “polymerase ribozyme fitness (log ratio)” value was -1.67. With GACCAAUCUGCCCUCAGAGCUCGAGAACAUCUUCGGAUGCAUAGGACGCAGGCUUCGGUGGCGCGAUAGCGCCAACGUCCUCAACCUCCAAUGCAUCCCACAACAUGAUGAGGCCUGAAUAGCCUUGGUUUUUUG the “polymerase ribozyme fitness (log ratio)” value was -6.76. With GACCAAUCUGCCCUCAGAGCUCGAGAACAUCUUCGGAUGCAUAGGAUGCAGGCUUCGGUGGCGCGAUAGCGCCAACGUCCUCAACCUCCAAUGCAUCCCACCACAUGAUGAUGCCUGAAGAGGCUUGGUUUUUUG the “polymerase ribozyme fitness (log ratio)” value was -1.61. In the case of GACCAAUCUGCCCUCAGAGCUCGAGAACAUCUUCGGAUGCAUAGGAGACAGGCUUCGGUGGCGCGAUAGCGCCAACGUCCUCAACCUCCAAUGCAUCCCACCACAUGAUCGUGCCUGAAGAGCCUUGGUUUUUUG, the “polymerase ribozyme fitness (log ratio)” value is reported as -6.19.
